Among the data in patent US20230095569A1 are FACS MFI values, retold here.

Numbering of substitutions follows the chain as printed.

To fix the notation:
B1: Ab02 (antibody, V domains shown)
VH: QVQLKESGPGLVAPSQSLSITCTVSGFSLTSYAINWVRQPPGKGLEWLGVIWTGGGTNYNSALKSRLSINKDNSKSQVFLKMNSLQTDDTARYYCARFYDGYYSWFAYWGQGTLVTVSA
VL: DIVMTQSHKFMSTSVGDRVSITCKASQDVGTAVTWYQQKPGQSPKLLIYWASTRHTGVPDRFTGSGSGTDFTLTISNVQSEDLADYFCQQYSSYPFTFGSGTKLEIK
B2: Ab16 (antibody, V domains shown)
VH: EVMLVESGGGLVKPGGSLKLSCAASGFTFNSYTMSWVRQTPEKRLEWVATITVIGGNTYYLDSVKGRFTISIDNGKNTLYLQMSSLRSEDTALYYCARMGQTQRNAMDYWGQGTSVTVSS
VL: DIVMTQSPSSLSVSAGQKVTMRCKSSQSLLNSGNQKNYLAWYQQKLGQPPKLLIYGASTRESGVPDRFSGSGSGTDFTLTITSVQAEDLAVYYCQNDYSFPLTFGAGTKLELK
B3: Ab15 (antibody, V domains shown)
VH: EVMLVESGGDLVKPGGSLKLSCAASGFTFSTYTMSWVRQTPEKRLEWVATIVGGGGYTYYLDSVKGRFTISRDNAKNTLYLQMISLRSEDTALYYCARMGLTQRNALDYWGQGTSITVSS
VL: DIVMTQSPSSLSVSEGEKVTLNCKSSQSLFNSGNQKNYLAWYQQKPGQPPKLLIYGASTRESGVPDRFTGSGFGTDFTLTISSVQAEDLAVYYCQNDHTYPLTFGAGAKLELK
B4: Ab38 (antibody, V domains shown)
VH: QIQLVQSGPELKKPGETVKISCKASGYTFTNYGMSWVKQAPGKGLKWMGWINTYSGVPTYADDFKGRFVFSLEASASTAYLQINNLKNEDAATYFCSRWSGPDPLEDHWGQGTTLTVSS
VL: QIVLTQSPAIMSASPGEKVTMTCTASLSLNYIHWYRQRSGTSPKRWIYDTSKLASGVPSRFSGSGSGTSYSLTISSMEAEDAATYYCQQWSSNPWTFGGGTKLEIK
B5: Ab36 (antibody, V domains shown)
VH: EVKLEESGGGLVQPGGSMKLSCVASGFTFSNYWMNWVRQSPEKGLEWVAQIRLKSDNYATHYAESVKGMFTISRDDSKSSVYLQMNNLRAEDTGIYYCTAGGDYWGQGTTLTVSS
VL: DIVMTQSQKFMSTTVGDRVSITCKASQNVGTAVAWYHQKPGQSPKLLIYSASNRYTGVPDRFIGSGSGTDFTLTISNVQSEDLGNYFCQQYINYLLTFGSGTKLEIK
B6: Ab18 (antibody, V domains shown)
VH: QVQLKESGPGLVAPSQSLSITCTVSGFSLTTYGINWVRQPPGKGLEWLGVIWGDGSTNYHSALISRLSISKDNSKSQVFLKLNSLQTDDTATYYCVKSSYYGNAMDYWGQGTSVTVSS
VL: DIVMTQSPSSLTVTAGETVTMSCKSSQSLLNSGNQKNYLTWYQQKPGQPPKLLIYWASTRESGVPDRFTGSGSGTDFTLTISSVQAEDLAVYYCQNVYSYPFTFGSGTKLEI
B7: Ab21 (antibody, V domains shown)
VH: EVMLVESGGGLVKPGGSLKLSCAASGFTFSSYTMSWVRQTPEKRLEWVATIIGGYGNTYYVDSVKGRFTISRDSAKNTLYLQMISLRSEDTALYYCTRLGQTQRNAMDYWGQGTSVTVSS
VL: B6 VL with V3L, T12S, T14S, T18K, T40A, W56G, V97D, S99Y, S106A, I112L
B8: Ab19 (antibody, V domains shown)
VH: EVMLVESGGDLVKPGGSLKLSCAASGFSFSRYTMSWVRQTPEKRLEWVATVSVGSGNTYYLDSVKGRFTISRDNAKNTLFLQMSSLRSEDTALYYCARMGQTQRNAVDYWGQGTSVTVSS
VL: DIVMTQSPSSLSVSAGEKVTMSCKSSQSLFNSGNQKNYLAWYQQKPGQPPKLLIYGASTRESGVPDRFTGSGSGTDFTLTISNVQAEDLAVYLCQNDHSFPLTFGAGTKLEL
B9: Ab20 (antibody, V domains shown)
VH: B7 VH with A23V, V61S, F68I
VL: B8 VL with V3L, S22N, F30L, N83S, L93Y, H98Y, S99Y, F100Y, L102F
B10: Ab22 (antibody, V domains shown)
VH: B7 VH with V61A
VL: B8 VL with V3L, F30L, R67T, N83S, L93Y, H98Y, S99Y, F100Y, L102F
B11: Ab24 (antibody, V domains shown)
VH: EVKLVESGGGLVKPGGSLKLSCAGSGFTFSSYTMSWVRQTPEKRLEWVATITIGVNIYYLDSVKGRFTISRDNAKNTLYLQMNSLRSEDTALYYCTRLGQTQRNAMDYWGQGTSVTVSS
VL: B8 VL with S9T, S22T, Q44E, N83S, L93Y, D97V, S99F, F100Y, L102F
B12: Ab17 (antibody, V domains shown)
VH: QVQLKESGPGLVAPSQSLSITCTVSGFSLTSYAISWVRQPPGKGLEWLGEIWTGGGTNYNSALKSRLSISKDNSKSQVFLKMNSLQTDDTARYYCGRLSYGNSLDYWGQGTTLTVSS
VL: DIVMTQSPSSLTVTAGEKVTMSCKSSQSLLNSGNQKNYLTWYQQKPGQPPKLLIYWASTRESGVPDRFTGSGSGTDFTLTVSSVQAEDLAVYYCQNNFIYPLTFGPGTKLELK

One test concerns the target mouse Claudine18.2 (mouse) (UniProt P56857). Put plainly: FACS on CHOK1-m18.2 cells.
As to B1, the FACS MFI was found to be 2040.

B2 yielded an FACS MFI of 14300.

Consider B3, for which the FACS MFI amounted to 12200.

The molecule B4 came in with an FACS MFI of 20400.

The molecule B5 had an FACS MFI of 21600.

Take B6: the FACS MFI was found to be 13500.

On to B7, for which the FACS MFI is 15200.

Turning to B8, the FACS MFI came out at 13400.

For the molecule B9, the FACS MFI was determined as 13800.

B10 yielded an FACS MFI of 15500.

In the case of B11, the FACS MFI stood at 12800.

In the case of B12, the FACS MFI was determined as 13300.

For a further test, the target named is human Claudin18.1 (CLDN18.1) (human) (UniProt P56856). Description: FACS on CHOK1-18.1 cells.
Chain of human Claudin18.1 (CLDN18.1) (human) (P56856 whole entry): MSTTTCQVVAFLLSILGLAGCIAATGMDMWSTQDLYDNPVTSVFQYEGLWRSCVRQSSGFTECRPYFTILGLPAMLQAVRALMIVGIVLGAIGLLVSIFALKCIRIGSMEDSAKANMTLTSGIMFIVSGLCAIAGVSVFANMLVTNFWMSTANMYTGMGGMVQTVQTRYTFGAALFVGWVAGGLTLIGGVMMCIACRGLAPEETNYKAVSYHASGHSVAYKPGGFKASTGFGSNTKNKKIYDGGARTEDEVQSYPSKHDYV
As to B4, the FACS MFI turned out to be 4470.

For B5, the FACS MFI amounted to 4300.

Another test concerns the target Rhesus monkey Claudine18.2 (Rhesus monkey) (UniProt F6YQY3). Description: FACS on CHOK1-rh18.2 cells.
B1 had an FACS MFI of 1400.

B2 showed an FACS MFI of 6660.

Molecule B3 returned an FACS MFI of 6320.

For the molecule B4, the FACS MFI is 15600.

B5 gave an FACS MFI of 17400.

B6 registered an FACS MFI of 7890.

On to B7, for which the FACS MFI is 8240.

B8: the FACS MFI amounted to 6290.

Regarding B9, the FACS MFI stood at 7050.

B10 returned an FACS MFI of 7330.

B11 registered an FACS MFI of 7520.

In turn, B12 had an FACS MFI of 6680.
